In the series the target is KLF15-ZF-GST (human, UniProt Q9UIH9 294-416). As to the kind of experiment: competition; 50x, 250x vs bRho29 probe; also hRho29 probe (data not shown); EMSA: 4 mM HEPES, 5 mM EGTA, 100 mM KCl, 0.25 mM ZnCl2, 0.02% NP40, 0.1 M DTT, 4% glycerol, 90-120 min on ice, pH not stated; footprinting: same buffer, DNase I at room temperature 1 min. The note with it: protein: recombinant; tags: N-terminal GST; label: unlabeled; GG ends end-filled. A general note: Mobility shift assays separate free from complexed probe on a gel.
KLF15-ZF-GST, sequence (Q9UIH9 294-416): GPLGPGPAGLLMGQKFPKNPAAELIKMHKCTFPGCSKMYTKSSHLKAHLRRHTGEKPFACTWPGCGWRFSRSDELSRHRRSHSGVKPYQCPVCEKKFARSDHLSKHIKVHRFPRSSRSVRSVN

B1: IRBP1 (dsDNA)
DNA 1: GGACAGGATTAAAGGCTTACTGGAG
DNA 2: CTCCAGTAAGCCTTTAATCCTGTCC
As for B1, the binding result is “no binding”.

B2: IRBP2 (dsDNA)
DNA 1: GGACTTGTCAGGGCCTTTA
DNA 2: TAAAGGCCCTGACAAGTCC
Take B2: the binding result was “no binding”.

For the origin of these results see publication PMC1182371, “Zinc-finger domains of the transcriptional repressor KLF15 bind multiple sites in rhodopsin and IRBP promoters including the CRS-1 and G-rich repressor elements”.
